Assay results taken from patent US20220298218A1 (ANTAG THERAPEUTICS, published 2022).
*1 amine or outer side, *2 acyl side, *3 side chain or, on linkers, in order; H or OH if unused. Where no end group is shown, it is not given here. Side-chain parts run from the residue outwards. The star is where a group is joined. C16 diacid = O=C(O)CCCCCCCCCCCCCCC(=O)*; γGlu = O=C(O)[C@H](CCC(=O)[*:2])N[*:1]; AEEA = NCCOCCOCC(=O)O

T1: human GIP receptor (human, UniProt P48546 22-466)
T1 sequence (looked up): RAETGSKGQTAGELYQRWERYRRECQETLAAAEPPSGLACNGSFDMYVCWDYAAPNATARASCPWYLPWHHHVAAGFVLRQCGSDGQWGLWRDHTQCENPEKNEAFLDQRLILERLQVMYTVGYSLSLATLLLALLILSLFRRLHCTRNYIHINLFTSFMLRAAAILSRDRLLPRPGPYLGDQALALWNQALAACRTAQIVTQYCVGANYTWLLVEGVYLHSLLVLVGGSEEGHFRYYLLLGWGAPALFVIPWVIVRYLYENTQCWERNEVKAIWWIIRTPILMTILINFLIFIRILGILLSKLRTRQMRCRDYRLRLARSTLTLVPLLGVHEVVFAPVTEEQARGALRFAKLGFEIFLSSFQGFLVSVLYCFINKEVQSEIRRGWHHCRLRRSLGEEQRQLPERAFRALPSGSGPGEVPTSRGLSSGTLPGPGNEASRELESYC


The binders below were run against T1, human GIP receptor (assay: cell-based or functional assay).

Binder	cAMP agonism % Emax [%]	cAMP antagonism [nM]	cAMP antagonism % inhib [%]	cAMP antagonism pIC50
TFISDYKIAMDKIHQQDFVNWLLAQKPSSGAPPPS (HELM PEPTIDE1{T.F.I.S.D.Y.K.I.A.M.D.K.I.H.Q.Q.D.F.V.N.W.L.L.A.Q.K.P.S.S.G.A.P.P.P.S}|PEPTIDE2{[O=C(O)CCCCCCCCCCCCCCC(=O)[*:2]].[gGlu]}$PEPTIDE1,PEPTIDE2,7:R3-2:R2$$$V2.0; N-terminus assumed; SMILES CC[C@H](C)[C@H](NC(=O)[C@H](CCCCNC(=O)CC[C@H](NC(=O)CCCCCCCCCCCCCCC(=O)O)C(=O)O)NC(=O)[C@H](Cc1ccc(O)cc1)NC(=O)[C@H](CC(=O)O)NC(=O)[C@H](CO)NC(=O)[C@@H](NC(=O)[C@H](Cc1ccccc1)NC(=O)[C@@H](N)[C@@H](C)O)[C@@H](C)CC)C(=O)N[C@@H](C)C(=O)N[C@@H](CCSC)C(=O)N[C@@H](CC(=O)O)C(=O)N[C@@H](CCCCN)C(=O)N[C@H](C(=O)N[C@@H](Cc1c[nH]cn1)C(=O)N[C@@H](CCC(N)=O)C(=O)N[C@@H](CCC(N)=O)C(=O)N[C@@H](CC(=O)O)C(=O)N[C@@H](Cc1ccccc1)C(=O)N[C@H](C(=O)N[C@@H](CC(N)=O)C(=O)N[C@@H](Cc1c[nH]c2ccccc12)C(=O)N[C@@H](CC(C)C)C(=O)N[C@@H](CC(C)C)C(=O)N[C@@H](C)C(=O)N[C@@H](CCC(N)=O)C(=O)N[C@@H](CCCCN)C(=O)N1CCC[C@H]1C(=O)N[C@@H](CO)C(=O)N[C@@H](CO)C(=O)NCC(=O)N[C@@H](C)C(=O)N1CCC[C@H]1C(=O)N1CCC[C@H]1C(=O)N1CCC[C@H]1C(=O)N[C@@H](CO)C(=O)O)C(C)C)[C@@H](C)CC) [AT632]	0	8.41	100	8.1
EGTFISDYSIAMDKIK([AEEA-AEEA-γGlu-C16 diacid])QQDFVNWLLAQKPSSGAPPPS-OH (N-terminus assumed; SMILES CC[C@H](C)[C@H](NC(=O)[C@H](CO)NC(=O)[C@H](Cc1ccc(O)cc1)NC(=O)[C@H](CC(=O)O)NC(=O)[C@H](CO)NC(=O)[C@@H](NC(=O)[C@H](Cc1ccccc1)NC(=O)[C@@H](NC(=O)CNC(=O)[C@@H](N)CCC(=O)O)[C@@H](C)O)[C@@H](C)CC)C(=O)N[C@@H](C)C(=O)N[C@@H](CCSC)C(=O)N[C@@H](CC(=O)O)C(=O)N[C@@H](CCCCN)C(=O)N[C@H](C(=O)N[C@@H](CCCCNC(=O)COCCOCCNC(=O)COCCOCCNC(=O)CC[C@H](NC(=O)CCCCCCCCCCCCCCC(=O)O)C(=O)O)C(=O)N[C@@H](CCC(N)=O)C(=O)N[C@@H](CCC(N)=O)C(=O)N[C@@H](CC(=O)O)C(=O)N[C@@H](Cc1ccccc1)C(=O)N[C@H](C(=O)N[C@@H](CC(N)=O)C(=O)N[C@@H](Cc1c[nH]c2ccccc12)C(=O)N[C@@H](CC(C)C)C(=O)N[C@@H](CC(C)C)C(=O)N[C@@H](C)C(=O)N[C@@H](CCC(N)=O)C(=O)N[C@@H](CCCCN)C(=O)N1CCC[C@H]1C(=O)N[C@@H](CO)C(=O)N[C@@H](CO)C(=O)NCC(=O)N[C@@H](C)C(=O)N1CCC[C@H]1C(=O)N1CCC[C@H]1C(=O)N1CCC[C@H]1C(=O)N[C@@H](CO)C(=O)O)C(C)C)[C@@H](C)CC) [AT629]	0	17.1	93	7.8
EGTFISDYSIAMDKIKQQDFVNWLLAQKPSSGAPPPS (HELM PEPTIDE1{E.G.T.F.I.S.D.Y.S.I.A.M.D.K.I.K.Q.Q.D.F.V.N.W.L.L.A.Q.K.P.S.S.G.A.P.P.P.S}|PEPTIDE2{[O=C(O)CCCCCCCCCCCCCCC(=O)[*:2]].[gGlu]}$PEPTIDE1,PEPTIDE2,16:R3-2:R2$$$V2.0; N-terminus assumed; SMILES CC[C@H](C)[C@H](NC(=O)[C@H](CO)NC(=O)[C@H](Cc1ccc(O)cc1)NC(=O)[C@H](CC(=O)O)NC(=O)[C@H](CO)NC(=O)[C@@H](NC(=O)[C@H](Cc1ccccc1)NC(=O)[C@@H](NC(=O)CNC(=O)[C@@H](N)CCC(=O)O)[C@@H](C)O)[C@@H](C)CC)C(=O)N[C@@H](C)C(=O)N[C@@H](CCSC)C(=O)N[C@@H](CC(=O)O)C(=O)N[C@@H](CCCCN)C(=O)N[C@H](C(=O)N[C@@H](CCCCNC(=O)CC[C@H](NC(=O)CCCCCCCCCCCCCCC(=O)O)C(=O)O)C(=O)N[C@@H](CCC(N)=O)C(=O)N[C@@H](CCC(N)=O)C(=O)N[C@@H](CC(=O)O)C(=O)N[C@@H](Cc1ccccc1)C(=O)N[C@H](C(=O)N[C@@H](CC(N)=O)C(=O)N[C@@H](Cc1c[nH]c2ccccc12)C(=O)N[C@@H](CC(C)C)C(=O)N[C@@H](CC(C)C)C(=O)N[C@@H](C)C(=O)N[C@@H](CCC(N)=O)C(=O)N[C@@H](CCCCN)C(=O)N1CCC[C@H]1C(=O)N[C@@H](CO)C(=O)N[C@@H](CO)C(=O)NCC(=O)N[C@@H](C)C(=O)N1CCC[C@H]1C(=O)N1CCC[C@H]1C(=O)N1CCC[C@H]1C(=O)N[C@@H](CO)C(=O)O)C(C)C)[C@@H](C)CC) [AT630]	0	11.2	85	8
Ac-EGTFISDYSIAMDKIK(C16 diacid)QQDFVNWLLAQKPSSGAPPPS-OH (SMILES CC[C@H](C)[C@H](NC(=O)[C@H](CO)NC(=O)[C@H](Cc1ccc(O)cc1)NC(=O)[C@H](CC(=O)O)NC(=O)[C@H](CO)NC(=O)[C@@H](NC(=O)[C@H](Cc1ccccc1)NC(=O)[C@@H](NC(=O)CNC(=O)[C@H](CCC(=O)O)NC(C)=O)[C@@H](C)O)[C@@H](C)CC)C(=O)N[C@@H](C)C(=O)N[C@@H](CCSC)C(=O)N[C@@H](CC(=O)O)C(=O)N[C@@H](CCCCN)C(=O)N[C@H](C(=O)N[C@@H](CCCCNC(=O)CCCCCCCCCCCCCCC(=O)O)C(=O)N[C@@H](CCC(N)=O)C(=O)N[C@@H](CCC(N)=O)C(=O)N[C@@H](CC(=O)O)C(=O)N[C@@H](Cc1ccccc1)C(=O)N[C@H](C(=O)N[C@@H](CC(N)=O)C(=O)N[C@@H](Cc1c[nH]c2ccccc12)C(=O)N[C@@H](CC(C)C)C(=O)N[C@@H](CC(C)C)C(=O)N[C@@H](C)C(=O)N[C@@H](CCC(N)=O)C(=O)N[C@@H](CCCCN)C(=O)N1CCC[C@H]1C(=O)N[C@@H](CO)C(=O)N[C@@H](CO)C(=O)NCC(=O)N[C@@H](C)C(=O)N1CCC[C@H]1C(=O)N1CCC[C@H]1C(=O)N1CCC[C@H]1C(=O)N[C@@H](CO)C(=O)O)C(C)C)[C@@H](C)CC) [AT633]	23	–	–	~8.8
